In patent publication US7771961B2, “Cytochrome c acetylation” (Elixir Pharmaceuticals, Inc, priority 2002, dated 2010):

B1: recombinant GST-SIRT2: recombinant GST fusion of human SIRT2, NAD-dependent deacetylase (protein)
chain: MAEPDPSHPLETQAGKVQEAQDSDSDSEGGAAGGEADMDFLRNLFSQTLSLGSQKERLLDELTLEGVARYMQSERCRRVICLVGAGISTSAGIPDFRSPSTGLYDNLEKYHLPYPEAIFEISYFKKHPEPFFALAKELYPGQFKPTICHYFMRLLKDKGLLLRCYTQNIDTLERIAGLEQEDLVEAHGTFYTSHCVSASCRHEYPLSWMKEKIFSEVTPKCEDCQSLVKPDIVFFGESLPARFFSCMQSDFLKVDLLLVMGTSLQVQPFASLISKAPLSTPRLLINKEKAGQSDPFLGMIMGLGGGMDFDSKKAYRDVAWLGECDQGCLALAELLGWKKELEDLVRREHASIDAQSGAGVPNPSTSASPKKSPPPAKDEARTTEREKPQ
modifications: left off: a dimerising Fc or GST
notes: recombinant GST fusion of human SIRT2, NAD-dependent deacetylase
B2: recombinant GST-SIRT3: recombinant GST fusion of a fragment of human SIRT3 lacking the first 100 amino acids of the N-terminus (protein)
chain: SISFSVGASSVVGSGGSSDKGKLSLQDVAELIRARACQRVVVMVGAGISTPSGIPDFRSPGSGLYSNLQQYDLPYPEAIFELPFFFHNPKPFFTLAKELYPGNYKPNVTHYFLRLLHDKGLLLRLYTQNIDGLERVSGIPASKLVEAHGTFASATCTVCQRPFPGEDIRADVMADRVPRCPVCTGVVKPDIVFFGEPLPQRFLLHVVDFPMADLLLILGTSLEVEPFASLTEAVRSSVPRLLINRDLVGPLAWHPRSRDVAQLGDVVHGVESLVELLGWTEEMRDLVQRETGKLDGPDK
modifications: left off: a dimerising Fc or GST
notes: recombinant GST fusion of a fragment of human SIRT3 lacking the first 100 amino acids of the N-terminus
B3: cell derived SIRT3: SIRT3 enzyme derived from pull down of 293T cell extracts (protein)
chain: MAFWGWRAAAALRLWGRVVERVEAGGGVGPFQACGCRLVLGGRDDVSAGLRGSHGARGEPLDPARPLQRPPRPEVPRAFRRQPRAAAPSFFFSSIKGGRRSISFSVGASSVVGSGGSSDKGKLSLQDVAELIRARACQRVVVMVGAGISTPSGIPDFRSPGSGLYSNLQQYDLPYPEAIFELPFFFHNPKPFFTLAKELYPGNYKPNVTHYFLRLLHDKGLLLRLYTQNIDGLERVSGIPASKLVEAHGTFASATCTVCQRPFPGEDIRADVMADRVPRCPVCTGVVKPDIVFFGEPLPQRFLLHVVDFPMADLLLILGTSLEVEPFASLTEAVRSSVPRLLINRDLVGPLAWHPRSRDVAQLGDVVHGVESLVELLGWTEEMRDLVQRETGKLDGPDK
modifications: left off: large carriers
notes: SIRT3 enzyme derived from pull down of 293T cell extracts

Assays:
[1] = test system: chemically acetylated cytochrome c; experiment: titrated acetate release assay of deacetylation activity; type: biochemical; details: in vitro, in the presence and absence of NAD
Procedure: (§1) The activity of these proteins was determined in vitro using either a ^14C-nicotinamide release assay or a titrated acetate release assay.
(§2) Recombinant GST-SIRT2 deacetylation activity was tested on chemically acetylated cytochrome c in the presence and absence of NAD. Deacetylation activity was determined in vitro using a titrated acetate release assay.
as §2, with “GST-SIRT3” for “GST-SIRT2”, “NAD. The recombinant SIRT3 was a fragment of human SIRT3 lacking the first 100 amino acids of the N-terminus of full length human SIRT3.” for “NAD.”

[2] = test system: chemically acetylated cytochrome c; experiment: 14C-nicotinamide release assay of deacetylation activity; type: biochemical; details: in vitro, enzyme from pull down of 293T cell extracts, GFP as control
Procedure: as §1
Cell derived GST-SIRT3 deacetylation activity was tested on chemically acetylated cytochrome c. The SIRT3 was derived from “pull down” 293T extracts.
Deacetylation activity was determined in vitro using a ^14C-nicotinamide release assay. Deacetylation was determined for GFP (control) with chemically acetylated cytochrome c, SIRT3-GFP with chemically acetylated cytochrome c, and SIRT3-GFP with histone 4.

Molecule	deacetylation activity on chemically acetylated cytochrome c [1]	deacetylation activity on chemically acetylated cytochrome c [2]
B1	deacetylates cytochrome c in a NAD dependent manner	–
B2	deacetylates cytochrome c in a NAD dependent manner	–
B3	–	deacetylates cytochrome c
